In a protein production outcome set (Wang et al. 2014):

Experiment: label from the status in PepcDB records

Sequence | protein production
MNRIKAVGYENNELKEKAQLLADQLNLQLDQNADTCLFVTPEKLTLKIRNFSLMFADFSAMTWSKRRGEGKRQGLIRACKPTKGIKILDATAGWGKDAAILATFGADVVMLERHPVMAALLADALSRRNEADIQKMCLSLIASDAISFLHSLQEKDYPDIIYIDPMHPERNKSALVKKEMQVLQQLIGTDHDAMELIELSLSHVKSRVVVKWPQKVKPLLPPDASIDGKTVRFDIYMAQFSSN | failed
LSPQVRTAHIGDVPVLVRLMSEFYQEAGFALPHDAAIRAFKALLGKPDLGRIWLIAEGTESVGYIVLTLGFSMEYGGLRGFVDDFFVRPNARGKGLGAAALQTVKQGCCDLGVRALLVETGPEDHPARGVYSRAGFEESGRMLLGQALAPPIHEA | not failed
MNPADVTQLAPAVSTDVSLLSLFWHAHWVVKSIMLGLLGCSVWVWAIAIDKLLLFSRTKRAMDRFEQAFWSGESIDELYRALSAKPTHSMAACFVAAMREWKRSFESHSRSFAGLQMRIEKVMNVSIAREVERLERRLLVLATVGSAGPFVGLFGTVWGIMSSFQSIAASKNTSLAVVAPGIAEALFATAIGLIAAIPATIFYNKFTSEVNRQTQRLEGFADEFSAILSRQIDERT | failed
MSLTIKNSLGQSHDYIKMFVKEGDTVVDATCGNGNDTAFLASLVGENGRVFGFDIQDKAIANTTKKLTDLNLIDRVTLIKDGHQNMDKYIDCPVKAVMFNLGYLPSGDHSISTRPETTIQALSKAMELLVTGGIITVVIYYGGDTGFEEKEKVLEFLKGVDQKKFIVQRTDFINQANCPPILVCIEKISEGHHHHHH | not failed
MNTSNRRMGLFYVITGATCWGIGGTVAKKLFQEYQIDVNWLVTTRLLTAGMLLLMLQLFRKDRSQVIEVWKHKASAGQLLIFGLLGMLAVQYTYMASIQHGNAAVATLLQYLSPVIVIIYTLLRKQTVLTKQDIITVVLALVGCFFLLTNGSMSQLSVPAAAVVWGVLSGFAAAFYTLYAVGLLNKFDSLVVVGWAMIIGGFALGFIHPPWQLDFQRLTAEAYAYILFVILFGTMIAFWFFIKSLESLSPKETSLLGSLEPLSAVVTTVVWLKAPFGSFQWIGAICIIGITLILALHKEPSMESEKSILKIRNHANRDI | failed
MPKIPITLITGFLGSGKTSFLSEYLNQTDHQGVALIINEIGQAALDQRILSVQYCGEKMLYLNAGCVCCNKRLDLVESLKATLNNYEWHGEILRRIIIETTGLANPAPILWTILSDTFLGVHFEIQSVVACVDALNAREHLTNNEAKEQIVFADSVLLTKTDLQNDSAALTKLKERIQALNPSAEIFDKRAIDYESLFSRKNRARNFMPRMPKDSHSQGFETLSINFEGTMEWSAFGIWLSLLLHQYGTQILRIKGIIDIGSGFLVSINGVMHVIYPPKHILKDQNGSNLVFIMRHLEREKILNSLKGFKDFLGIKGFETQLEHHHHHH | not failed
MIVCKNRIGTMKRLGRISLRVLLLAGVLLSLLLMAMTLLYPPVEKGGLFFMLAIEVALLFFLGFLYNKVVLPIRAVGDGMDMLRSQDYATTLAPVGQPDADRVVELYNALMHSLKKERLRLEERDNFLSLVMDVSPVGFVVLDFDMRVVSVNPAARRLLDLPDDYIPIERPLEEVCAKIPFGPDELGEGESRTWRLPTAEVRRITRMRFFDRSFSRLFFSIETLTEELHSAEKEAYEKLIRLIAHEVNNSTAGIIGVLNAVGDAFDDTPHTPEGEVSEAIALCRDRCMAMSRFITRFAEVVKLPDPTLSSVDLVPLCERCILLMQPLAVETGVKMKMCKEQDSCLVRCDAEQIEQVVINLLRNAIESFAQQNDLAVSATKTVLLCLDRHNLLVEDNGQPISDDVATRLFTPFFSTKPNGQGIGLVVIREVLTRHGWSFSLTTDADGRTRFRMAWP | failed
MMSSSRRSFMAAGLVVVLAVAALIFGAPGPVPLSAGSSMSDRGAADTAEAPPKSSWAGRQFRDMTLDEKIAQLFVVRIDGEFQNANTPSYRETVALVEEFGAGGLIFGPGTPMTQIAMANDLQAKAERPLLVAQDTEWGVGMRIDAATSFPPAMAIGATRDASHAYRVGYATAREARALGVHQLYAPVADVNNNPKNPIINVRSFGESPSLVGTMASAFTRGAQRGGTLATVKHFPGHGDTDVDSHINLPVLRFDRSRLDSLELPPFRQAFDAGVRSVMTGHLALPEIAADSVPATLSRPLTHGLLREELGFDGLVVTDALNMQAVTRTFGVGETAVRVLEAGADLVLMSTNPHAAHQAVRQAVTSGRIDTTEINDSVRRLLRVKQDLRLHETRRVSLDTTRHRVAQRSHEVLARTVARESLTLLANADSLLPLTPPEQHDALVVTLSDSEYPGTGDTFVDRLRAQPAIETLDTRRLDPRSDSTDVNDHLADAADYDVVVVPSFLRVQAWSGSIGLSDMHHDFLEDLAGTDTPVAFVAFGNPYAPTGLEPAPDAILAAYGSGEASQRAAAQALGGGAGTPGRLPVTIPGVAEKGEGRRLAPVAPREGPPESVGMDGAQLARLDTLLRSAMLDGAFPGAAVAVGRGPALARLDAYGYHTYDETKPVQTGTQYDLASLTKVVATTTAVMKLYEADSLELDAPVARYLPDFAQNGKEAVTVRQLLTHSSGLKPYLDPDERGPTRAALLDTLMAQPLTYTPGTRSTYSGLNAIALMRIVETISGRPFDAFCRTHIFEPLGMDQTGFYDTDVTRAWVAPTTDTAGTRRRGSVHDPMARDMDGVSGNAGLFSTAADLARFGYMLTHEGRIDGRQFLEPKTIETFTAQADVPGSTRALGWDTKSAEGYSSAGDEFSAASFGHTGYTGTSFWVDPAEDLFFVLLTNRVYPDDTADRITQVRPRAADIVHRAIDGPPRPLLPGPAPEQ | failed
MEATEKLREKPIKSLFISYLIPAVLGMVLMSVNIVIDAVMISRGVGANGLAGVNVAIPAFSIFFSISLWIGMGGATLYSIALGENKIERARSIFTQSMTVAVIIVGVLAAICLWRIEDLAYVFGANEVILPYALDYLHVLLTFGMIYVLENILSTFIRNDGNPNLAMAGLVVTAVLNIVFDYIFIFIFKWGVTGAASATILSAAIGFLVLLTHFFRKSSILKWTKFHFEWDTVKQIMIIGFPSFTAESTVAIVTIGFNIAFVQYAGEVGVASYAMVNSIHAMTLLLFFGVGAALQPIASFHYGANLAERLREGLQFAVKIAVVLGGVAIIVGLFFGKYIIGLFDVQSPELLELTLTGMSLFFIQYVFLGYNIVYGEYFQSVRQTTKSVLIIMSRGLLFIIPLLWIMPKLFGINGIWLVMPVAEVLTAIIVFTMNRMKHPVPLNMAGEKEAI | failed
MIFLSTVLILCCTWYFLKFLAHFSRKIHDEVRKLSVYTHFLSKWLQSAPATFTYTAIFCAFTLVQRTAPQHLINILTNHSSTSIARVSDKPISTFFDSAFWVADNGAGLLIYVVLFWTVIAWAERKYGSPRMIVITLSGHILASLTTIFLELWAINSGRAPSSLAMATDVGVSYILVAGCAAAILIMRKRMFYIGLIILGLFILLPLFVEHSIWDMGHLFAAFFGFISARLLLKLSPVRTVSSPYELLLKCRSELSNK | failed
EDATPETVEYRQLSAADLLADTHLLREVFGLLVLAHYRTEPSDLARLLDAPNLTVRALTHEGHVVAVALLAQEGGLSASTRATMYEGGRVRGNMLPDVLSTQLRDEAAGVPVGQRVLRIATHAAVRSRGLGSKLLSEIRAEFADHVDWVGVSYGATPELVRFWADNGYNTVHLATSRNATSGEYSVVMLDP | failed
MCIAVIGGMDRLERHYRQEAARTGFELRVFSQSENNIATKLKRFDALVIFTNKVSHRVRNEAMSAAKLNGIPVFQYHSCGVCTLRDCLNCLVLPAGGGTKLEHHHHHH | failed
AYGLTFEAPKGILVEEDTEETFLLNNSRFYITIQSLDSDGMTKSDLKSVLKDYANDDGVKDQSAVQEFELPQFFGTYLKGSCETDHCLYACLMTKAAGSGFYISIIYSKENENIAEKILKSFTMEE | not failed
MTVITLVLGMLLPAVVSILMLMASTQSRISEEENMMRAGLVEGMGLQVDEVVDALAQSLEVIAANGGADADDATRWTRLLQASRAFGKQFLEFHVANPNGDVISSSASLPEGINVADRAYFSTSLATEGMVASEGLVSRHTGQIALYFALAVRSDEEAHSGVVFAGFNGEVFGDMLRKAGPRSDGLTVFVLDRNGDSVYEHLPSGGRHPVHIPPADLRDCADGRRAWLEFGGTRHAVSVMAKRLATGEAPYLYLLVSTPDESFFSLSTLRGVTPLLLGTLCVALAALAAANRRIVHPLESLTRKVQAIEAGQPLPETAMESVREIGGLQTAVTRMAQAISQREQELAWFATHDDLTGLANRKALHEMLAARLDRLEEGASETVAVIFIDIDRFKAINDSMGHTWGDNVIAAFAARLGAFMHPLHAFCARVGGDEFVVVPDASATHNVVRDTRALLAHLGTPYDINGREVRLSASAGVLFVGDPGESPDVIIRNANAAMHRSKERGFGRISIFRPLHLDSYMLRLDIERELPLAAATGQLHMVYQPIVNASDGSLHSFEALMRWNHPRHGSLSPATFITVAEQTGHVGLLGDFALREAGACVRRFGEAGLLTPGLRFGVNISPAHLMAQDFLSDIESVLDAVSVPGDRITLEVTESALISTGAELMGRLETLAKRGLNFAIDDYGAGYSNIQYLASEHFRVIKIDKSLIDEVHLRDRMRAIVRSTVQLAHSLGCKIVAEGVETHAQANLLARLGCDYLQGYLFSRPVPETDAMRLAIRAMDQGTLLPPEAHPDA | failed
GASDGGGSIRIPASFSGLIGLKPSRGSMPVGPEGWRGWQGASIDFALTISMRDTKALFYGLRGSHSGAPYQAPLAEWQTHPKKQRLKIALCTASPIGSLISPEATQAAKQAADFLAAAGHEIIEIPYPVDGAALIRSYYQMNGAETTAMMNSIQQGLGRPIRKEEIESFSWTMHQFGQKIPAATYVHSLQLWDQAAVTMEELFQKFDLFLSPTTAFSAPKINEDLQSEHIRQRMAQAAELTEAELAELIYDYFDKSLQLTPYTQLANLTGQPAISLPTHVTATGLPLGIQLLAARGREDLLFQVGEQFEQEGK | failed
MSRFHWLWPWRSSTSLRVTTVLRLGADQPAIVAAARASQACTRSPRTTRDAMAMHTNGSVFAGWDGSVIQAQQLQHQLAQRVLLHDEVSATPQLLAGFDVGFEDDGQTTRAAAVLLDAHTLLPLETHVARAPTSMPYVPGLLSFRELPALLQALARLSRTPDLVFIDGQGIAHPRRLGIAAHFGVVTGLPCIGIAKQRLAGSFAEPGPERGDHTPILLGGAQIGWALRSKPRCNPLIVSPGHCVSMQGALGWTLRTLRSYRLPEPTRLADRLASRRGKMPALAADTPLLF | failed
MHLNNLNNFNNLENNGEYHCSGPIIKKPFRHIALTVPSSDITNFNEIFYVEPQYIAQAIRLTNTFQGAIDPLTLNFNFEKALQIANGLPNAGVTGTINQSVIHQTIEVSVMISQIKEIIRSVLGLVINSANFWNSVVSAITNTFTNLEPQVDENWIVWRNLSATQTSYFYKILFSIQNEDTGRFMAILPIAFEITVDVQKQQLLFITIKDSARYEVKMKALTVVQALDSYNAPIIDVFNVRNYSLHRPNHNILQNLNVNPIKS | not failed
MNSESKLSQKANSSFTMDDFAKALENHDYQFQKGQVVYGKVFQLDPDGAYVDIGGKSSAYIPRDEASLRAVNDLAAVLPLHEELEFIIIREQDAEGQVTLSRRQLEINHIWEKLAQMKENSQPVDVKVTGVNKGGVTVDVQSLRGFIPRSHLTERDNLEALKGHTLTAGFLEVDRNNKKLVLSQRLVTRSSNFNQLEIGQLVEGKITGIKPFGVFVDLNGLSALLHIKQVSQKFIESLEKVFQPGQTIKAIVIDLDQGKGRVAISTRALENFPGEVLENFEEVMASAEARANRAANKMNEGGVGV | failed
MKHAQKYRYFSLLMGLVLLLSACQIGATTKDDNQAATKEATVELNRTTTPTLFFHGYAGTKNSFGSLLHRLEKQGATTQELVLLVKPDGTVVKERGALSGKATNPSVQVLFEDNKNNEWNQTEWIKNTLLYLQKNYQVNKANIVGHSMGGVSGLRYLGTYGQDTSLPKIEKFVSIGAPFNDFIDTSQQQTIETELENGPTEKSSRYLDYQEMINVVPEKLPILLIGGQLSPTDLSDGTVPLSSALAVNALLRQRGTQVTSQIIKGENAQHSQLHENPEVDQLLIEFLWPSKK | failed
